The binders below were run against PD-1 (PDCD1) (Homo sapiens (Human)) (UniProt Q15116) (assay: cell-based or functional assay).
Chain of PD-1 (PDCD1) (Homo sapiens (Human)) (Q15116 21-288): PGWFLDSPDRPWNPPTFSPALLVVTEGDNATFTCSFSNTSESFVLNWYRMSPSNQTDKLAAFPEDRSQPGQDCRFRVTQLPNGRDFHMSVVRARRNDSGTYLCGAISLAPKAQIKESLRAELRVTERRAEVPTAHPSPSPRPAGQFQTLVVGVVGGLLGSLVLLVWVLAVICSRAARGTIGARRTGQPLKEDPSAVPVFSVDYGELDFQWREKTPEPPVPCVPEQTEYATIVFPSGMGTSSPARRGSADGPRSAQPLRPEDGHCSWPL

| IFN gamma levels pg/mL (MLR) | Binder |
| --- | --- |
| 1170 pg/mL | PD-L2 V89D IgV-Fc (Fc fusion, not shown: a dimerising Fc or GST) LFTVTVPKELYIIEHGSNVTLECNFDTGSHVNLGAITASLQKVENDTSPHRERATLLEEQLPLGKASFHIPQVQVRDEGQYQCIIIYGDAWDYKYLTLKVKA |
| 1230 pg/mL | PD-L2 S67L/V89D IgV-Fc (Fc fusion, not shown: a dimerising Fc or GST) LFTVTVPKELYIIEHGSNVTLECNFDTGSHVNLGAITASLQKVENDTSPHRERATLLEEQLPLGKALFHIPQVQVRDEGQYQCIIIYGDAWDYKYLTLKVKA |
| 1720 pg/mL | PD-L2 I13V/H15Q/V31A/N45S/Q82R/V89D IgV-Fc (Fc fusion, not shown: a dimerising Fc or GST) LFTVTVPKELYIVEQGSNVTLECNFDTGSHANLGAITASLQKVESDTSPHRERATLLEEQLPLGKASFHIPQVQVRDEGQYRCIIIYGDAWDYKYLTLKVKA |
| 1700 pg/mL | PD-L2 I13V/H15Q/T47A/Q82R IgV-Fc (Fc fusion, not shown: a dimerising Fc or GST) LFTVTVPKELYIVEQGSNVTLECNFDTGSHVNLGAITASLQKVENDASPHRERATLLEEQLPLGKASFHIPQVQVRDEGQYRCIIIYGVAWDYKYLTLKVKA |
| 1090 pg/mL | PD-L2 I13V/H15Q/T47A/Q72H/R76G/I86T IgV-Fc (Fc fusion, not shown: a dimerising Fc or GST) LFTVTVPKELYIVEQGSNVTLECNFDTGSHVNLGAITASLQKVENDASPHRERATLLEEQLPLGKASFHIPHVQVGDEGQYQCIITYGVAWDYKYLTLKVKA |
| 1750 pg/mL | PD-L2 I13V/H15Q/T37A/E44D/S48C/S67L/Q82R/V89D IgV-Fc (Fc fusion, not shown: a dimerising Fc or GST) LFTVTVPKELYIVEQGSNVTLECNFDTGSHVNLGAIAASLQKVDNDTCPHRERATLLEEQLPLGKALFHIPQVQVRDEGQYRCIIIYGDAWDYKYLTLKVKA |
| 1120 pg/mL | PD-L2 I13V/H15Q/V89D IgV-Fc (Fc fusion, not shown: a dimerising Fc or GST) LFTVTVPKELYIVEQGSNVTLECNFDTGSHVNLGAITASLQKVENDTSPHRERATLLEEQLPLGKASFHIPQVQVRDEGQYQCIIIYGDAWDYKYLTLKVKA |
| 1190 pg/mL | PD-L2 N32D/S67L/V89D IgV-Fc (Fc fusion, not shown: a dimerising Fc or GST) LFTVTVPKELYIIEHGSNVTLECNFDTGSHVDLGAITASLQKVENDTSPHRERATLLEEQLPLGKALFHIPQVQVRDEGQYQCIIIYGDAWDYKYLTLKVKA |
| 836 pg/mL | PD-L2 I13V/H15Q/T47A/E58G/S67L/Q82R/V89D IgV-Fc (Fc fusion, not shown: a dimerising Fc or GST) LFTVTVPKELYIVEQGSNVTLECNFDTGSHVNLGAITASLQKVENDASPHRERATLLGEQLPLGKALFHIPQVQVRDEGQYRCIIIYGDAWDYKYLTLKVKA |
| 1220 pg/mL | PD-L2 I13V/H15Q/Q72H/R76G/I86T IgV-Fc (Fc fusion, not shown: a dimerising Fc or GST) LFTVTVPKELYIVEQGSNVTLECNFDTGSHVNLGAITASLQKVENDTSPHRERATLLEEQLPLGKASFHIPHVQVGDEGQYQCIITYGVAWDYKYLTLKVKA |
| 1620 pg/mL | PD-L2 Q82R/V89D IgV-Fc (Fc fusion, not shown: a dimerising Fc or GST) LFTVTVPKELYIIEHGSNVTLECNFDTGSHVNLGAITASLQKVENDTSPHRERATLLEEQLPLGKASFHIPQVQVRDEGQYRCIIIYGDAWDYKYLTLKVKA |
| 1020 pg/mL | PD-L2 S67L/I86T IgV-Fc (Fc fusion, not shown: a dimerising Fc or GST) LFTVTVPKELYIIEHGSNVTLECNFDTGSHVNLGAITASLQKVENDTSPHRERATLLEEQLPLGKALFHIPQVQVRDEGQYQCIITYGVAWDYKYLTLKVKA |
| 1600 pg/mL | PD-L2 I13V/H15Q/Q82R/V89D IgV-Fc (Fc fusion, not shown: a dimerising Fc or GST) LFTVTVPKELYIVEQGSNVTLECNFDTGSHVNLGAITASLQKVENDTSPHRERATLLEEQLPLGKASFHIPQVQVRDEGQYRCIIIYGDAWDYKYLTLKVKA |
| 1250 pg/mL | PD-L2 I13V/H15Q/T47A/R76G/V89D IgV-Fc (Fc fusion, not shown: a dimerising Fc or GST) LFTVTVPKELYIVEQGSNVTLECNFDTGSHVNLGAITASLQKVENDASPHRERATLLEEQLPLGKASFHIPQVQVGDEGQYQCIIIYGDAWDYKYLTLKVKA |
| 1260 pg/mL | PD-L2 I13V/H15Q/S39I/E44D/S67L IgV-Fc (Fc fusion, not shown: a dimerising Fc or GST) LFTVTVPKELYIVEQGSNVTLECNFDTGSHVNLGAITAILQKVDNDTSPHRERATLLEEQLPLGKALFHIPQVQVRDEGQYQCIIIYGVAWDYKYLTLKVKA |
| 1190 pg/mL | PD-L2 I13V/H15Q/R76G/D77N/Q82R/V89D IgV-Fc (Fc fusion, not shown: a dimerising Fc or GST) LFTVTVPKELYIVEQGSNVTLECNFDTGSHVNLGAITASLQKVENDTSPHRERATLLEEQLPLGKASFHIPQVQVGNEGQYRCIIIYGDAWDYKYLTLKVKA |
| 1080 pg/mL | PD-L2 I13V/H15Q/T47A/H69L/R76G/V89D IgV-Fc (Fc fusion, not shown: a dimerising Fc or GST) LFTVTVPKELYIVEQGSNVTLECNFDTGSHVNLGAITASLQKVENDASPHRERATLLEEQLPLGKASFLIPQVQVGDEGQYQCIIIYGDAWDYKYLTLKVKA |
| 936 pg/mL | PD-L2 I13V/S39I/E44D/Q82R/V89D IgV-Fc (Fc fusion, not shown: a dimerising Fc or GST) LFTVTVPKELYIVEHGSNVTLECNFDTGSHVNLGAITAILQKVDNDTSPHRERATLLEEQLPLGKASFHIPQVQVRDEGQYRCIIIYGDAWDYKYLTLKVKA |
| 868 pg/mL | PD-L2 I13V/S67L/V89D IgV-Fc (Fc fusion, not shown: a dimerising Fc or GST) LFTVTVPKELYIVEHGSNVTLECNFDTGSHVNLGAITASLQKVENDTSPHRERATLLEEQLPLGKALFHIPQVQVRDEGQYQCIIIYGDAWDYKYLTLKVKA |

Second part, the binder before the results:

| Binder | IFN gamma levels pg/mL (MLR) |
| --- | --- |
| PD-L2 H15Q IgV-Fc (Fc fusion, not shown: a dimerising Fc or GST) LFTVTVPKELYIIEQGSNVTLECNFDTGSHVNLGAITASLQKVENDTSPHRERATLLEEQLPLGKASFHIPQVQVRDEGQYQCIIIYGVAWDYKYLTLKVKA | 1820 pg/mL |
| PD-L2 H15Q/N18D/T47A/Q72H/V73A/R76G/I86T/V89D IgV-Fc (Fc fusion, not shown: a dimerising Fc or GST) LFTVTVPKELYIIEQGSDVTLECNFDTGSHVNLGAITASLQKVENDASPHRERATLLEEQLPLGKASFHIPHAQVGDEGQYQCIITYGDAWDYKYLTLKVKA | 1070 pg/mL |
| PD-L2 H15Q/S39I/E44D/Q72H/V75G/R76G/Q82R/V89D IgV-Fc (Fc fusion, not shown: a dimerising Fc or GST) LFTVTVPKELYIIEQGSNVTLECNFDTGSHVNLGAITAILQKVDNDTSPHRERATLLEEQLPLGKASFHIPHVQGGDEGQYRCIIIYGDAWDYKYLTLKVKA | 941 pg/mL |
| PD-L2 H15Q/V31M/S67L/Q82R/V89D IgV-Fc (Fc fusion, not shown: a dimerising Fc or GST) LFTVTVPKELYIIEQGSNVTLECNFDTGSHMNLGAITASLQKVENDTSPHRERATLLEEQLPLGKALFHIPQVQVRDEGQYRCIIIYGDAWDYKYLTLKVKA | 1210 pg/mL |
| PD-L2 G28V/Q72H/R76G/I86T IgV-Fc (Fc fusion, not shown: a dimerising Fc or GST) LFTVTVPKELYIIEHGSNVTLECNFDTVSHVNLGAITASLQKVENDTSPHRERATLLEEQLPLGKASFHIPHVQVGDEGQYQCIITYGVAWDYKYLTLKVKA | 1780 pg/mL |
| PD-L2 H15Q/T47A/S67L/R76G/Q82R/V89D IgV-Fc (Fc fusion, not shown: a dimerising Fc or GST) LFTVTVPKELYIIEQGSNVTLECNFDTGSHVNLGAITASLQKVENDASPHRERATLLEEQLPLGKALFHIPQVQVGDEGQYRCIIIYGDAWDYKYLTLKVKA | 1100 pg/mL |
| PD-L2 H15Q/Q72H/Q74R/R76G/I86T IgV-Fc (Fc fusion, not shown: a dimerising Fc or GST) LFTVTVPKELYIIEQGSNVTLECNFDTGSHVNLGAITASLQKVENDTSPHRERATLLEEQLPLGKASFHIPHVRVGDEGQYQCIITYGVAWDYKYLTLKVKA | 934 pg/mL |
| PD-L2 H15Q/T47A/Q72H/R76G/I86T IgV-Fc (Fc fusion, not shown: a dimerising Fc or GST) LFTVTVPKELYIIEQGSNVTLECNFDTGSHVNLGAITASLQKVENDASPHRERATLLEEQLPLGKASFHIPHVQVGDEGQYQCIITYGVAWDYKYLTLKVKA | 1600 pg/mL |
| PD-L2 H15Q/S39I/S67L/V89D IgV-Fc (Fc fusion, not shown: a dimerising Fc or GST) LFTVTVPKELYIIEQGSNVTLECNFDTGSHVNLGAITAILQKVENDTSPHRERATLLEEQLPLGKALFHIPQVQVRDEGQYQCIIIYGDAWDYKYLTLKVKA | 1230 pg/mL |
| PD-L2 H15Q/T47A/S67L/Q82R/V89D IgV-Fc (Fc fusion, not shown: a dimerising Fc or GST) LFTVTVPKELYIIEQGSNVTLECNFDTGSHVNLGAITASLQKVENDASPHRERATLLEEQLPLGKALFHIPQVQVRDEGQYRCIIIYGDAWDYKYLTLKVKA | 1200 pg/mL |
| PD-L2 H15Q/T47A/H69L/Q82R/V89D IgV-Fc (Fc fusion, not shown: a dimerising Fc or GST) LFTVTVPKELYIIEQGSNVTLECNFDTGSHVNLGAITASLQKVENDASPHRERATLLEEQLPLGKASFLIPQVQVRDEGQYRCIIIYGDAWDYKYLTLKVKA | 1730 pg/mL |
| PD-L2 H15Q/N24S/T47A/Q72H/R76G/V89D IgV-Fc (Fc fusion, not shown: a dimerising Fc or GST) LFTVTVPKELYIIEQGSNVTLECSFDTGSHVNLGAITASLQKVENDASPHRERATLLEEQLPLGKASFHIPHVQVGDEGQYQCIIIYGDAWDYKYLTLKVKA | 1090 pg/mL |
| PD-L2 E44D/V89D/W91R IgV-Fc (Fc fusion, not shown: a dimerising Fc or GST) LFTVTVPKELYIIEHGSNVTLECNFDTGSHVNLGAITASLQKVDNDTSPHRERATLLEEQLPLGKASFHIPQVQVRDEGQYQCIIIYGDARDYKYLTLKVKA | 1560 pg/mL |
| PD-L2 H15Q/T47A IgV-Fc (Fc fusion, not shown: a dimerising Fc or GST) LFTVTVPKELYIIEQGSNVTLECNFDTGSHVNLGAITASLQKVENDASPHRERATLLEEQLPLGKASFHIPQVQVRDEGQYQCIIIYGVAWDYKYLTLKVKA | 1640 pg/mL |
| PD-L2 H15Q/S67L/I86T IgV-Fc (Fc fusion, not shown: a dimerising Fc or GST) LFTVTVPKELYIIEQGSNVTLECNFDTGSHVNLGAITASLQKVENDTSPHRERATLLEEQLPLGKALFHIPQVQVRDEGQYQCIITYGVAWDYKYLTLKVKA | 1030 pg/mL |
| PD-L2 H15Q/Q82R/V89D IgV-Fc (Fc fusion, not shown: a dimerising Fc or GST) LFTVTVPKELYIIEQGSNVTLECNFDTGSHVNLGAITASLQKVENDTSPHRERATLLEEQLPLGKASFHIPQVQVRDEGQYRCIIIYGDAWDYKYLTLKVKA | 1080 pg/mL |
| PD-L2 F2L/H15Q/D46E/T47A/Q72H/R76G/Q82R/V89D IgV-Fc (Fc fusion, not shown: a dimerising Fc or GST) LLTVTVPKELYIIEQGSNVTLECNFDTGSHVNLGAITASLQKVENEASPHRERATLLEEQLPLGKASFHIPHVQVGDEGQYRCIIIYGDAWDYKYLTLKVKA | 1170 pg/mL |
| PD-L2 H15Q/S67L/Q72H/R76G/V89D IgV-Fc (Fc fusion, not shown: a dimerising Fc or GST) LFTVTVPKELYIIEQGSNVTLECNFDTGSHVNLGAITASLQKVENDTSPHRERATLLEEQLPLGKALFHIPHVQVGDEGQYQCIIIYGDAWDYKYLTLKVKA | 1060 pg/mL |
